Data on three molecules can be found in PMC4420465, “A Novel Type II NAD^+-Specific Isocitrate Dehydrogenase from the Marine Bacterium Congregibacter litoralis KT71” (PLoS ONE, 2015).

For orientation: stoichiometry N means a count of units in the complex or per binding partner. One may read the Km as the substrate concentration at which the rate is half of its maximum. By kcat is commonly meant the maximal rate divided by the concentration of active sites. One may read the kcat/Km as the turnover number divided by the Michaelis constant.

Changes are numbered by the printed parent chain. Numbers in names are those of the source.

In series [1] the target is Congregibacter litoralis KT71 NAD+-specific isocitrate dehydrogenase (recombinant ClIDH) (Congregibacter litoralis KT71). Put plainly: SEC; gel filtration on a 10/300 Superdex 200 column, 0.05 M potassium phosphate buffer (pH 7.0), 0.15 M NaCl, 0.01% sodium azide; calibrated with ovalbumin, conalbumin, aldolase, ferritin, thyroglobulin.
Series [2] has the same target. Put plainly: AUC; sedimentation velocity, Beckman XL-A, 20°C, 116,000 g, continuous c(s) distribution; protein of more than 90% purity after gel filtration; single run. In general terms: SEC sorts molecules by how far they enter the pores of the column.
Substrate in series [3]: NC(=O)c1ccc[n+]([C@@H]2O[C@H](COP(=O)(O)OP(=O)(O)OC[C@H]3O[C@@H](n4cnc5c(N)ncnc54)[C@H](O)[C@@H]3O)[C@@H](O)[C@H]2O)c1
As to the kind of experiment: purified protein. It counts as biochemical, Congregibacter litoralis. The conditions noted are these: Mn2+ 2 mM, DL-isocitrate 1.5 mM, 35 mM Tris-HCl pH 7.5, 25°C, varied: cofactor.

Substrate in series [4]: O=C(O)CC(C(=O)O)C(O)C(=O)O
As to the kind of experiment: purified protein. The conditions noted are these: Mn2+ 2 mM, NAD+ 1 mM, 35 mM Tris-HCl pH 7.5, 25°C. It counts as biochemical, Congregibacter litoralis.

Substrate in series [5]: NC(=O)c1ccc[n+]([C@@H]2O[C@H](COP(=O)(O)OP(=O)(O)OC[C@H]3O[C@@H](n4cnc5c(N)ncnc54)[C@H](OP(=O)(O)O)[C@@H]3O)[C@@H](O)[C@H]2O)c1
As to the kind of experiment: purified protein. In kind it is biochemical, Congregibacter litoralis. The conditions noted are these: Mn2+ 2 mM, DL-isocitrate 1.5 mM, 35 mM Tris-HCl pH 7.5, 25°C, varied: cofactor.

As for “Congregibacter litoralis KT71 NAD+-specific isocitrate dehydrogenase (recombinant ClIDH) (enzyme)”, the stoichiometry N in series [1] and in series [2] was 6 each time.

B1: ClIDH (Congregibacter litoralis KT71) (protein)
chain: MSNKIKVEKPLVILHGDEMAQIAFERLLEQFVTSRLDINLLEVDLSAEKRFTTNGQVVLDAIDALIEHGVGIKNAGMTVNRSQLDELLAKYPDVKESELDKLATKSPNGAIRKGIGGNITREDIEFQNLTSVRPDWIDRDIEVDTMDSGGLDFSYSELSNATGVAKVMFVGSSGDPVELHRRTLKKGDPWMLANNSLEEVEAWAHRFFQRALDEKRDIYLGLKDTVVPGYDGVMRAAIEAIYERDYKEKVAAAGLKYHYELIDAQAARIVSNPPERALWGVPDNVSGMKLYKLVQQLKHYGLPERKANVSISRMSAGGGDQYGSYNTPAPEDGIIKVVVDGVEKHARMVKANDPILFMSNDRDAIKDWVKQVFKDASINKKEVYFGLKREFVNYDEVYSSIILEIRKELAALDTPPPSFMIMRPSRQLSKMICDPPRWGLYPAQNLDGDIFSDISAALGGSLATASSVIKSKDGTLLYEAPHGTAHDLYLRYLETDGKEAHFNSSALIFAVANALEEMARREENEALADYAQRLKAALIDTVAQGTITGDLKGKTLDPESENVVDMYGFLDAIEANLNAS
notes: full length 580 residues, 6xHis tag (pET-28b, upstream, kept), E. coli Rosetta (DE3), about 64 kDa subunit, homohexamer
With B1, in “purified protein [3]”, the Km came to 309.1 ± 11.2 µM, the kcat came to 84.7 s⁻¹ and the kcat/Km amounted to 270000 M⁻¹ s⁻¹. For the same molecule, the Km in the series “purified protein [4]” amounted to 90.8 µM.

B2: ClIDH (Congregibacter litoralis KT71; D487R/L488H) (protein)
chain: B1 chain with D487R, L488H
notes: as for B1
On to B2, for which, in “purified protein [5]”, the Km came to 156.7 ± 4.8 µM, the kcat is 55.1 s⁻¹ and the kcat/Km was 350000 M⁻¹ s⁻¹. For the same molecule, in the series “purified protein [3]”, the Km amounted to 663.8 ± 48.6 µM, the kcat worked out at 9.7 s⁻¹ and the kcat/Km is 15000 M⁻¹ s⁻¹.
